From US20260167712A1, “INHIBITORY ANTIBODIES AGAINST GLUT1” (ICOSAGEN CELL FACTORY OÜ, priority 2022, published 2026)
Entries after “also recorded” stand apart in the source; their conditions may differ.

Experiments:
[1] = target: T1, HEK-293-ALL cells transfected with human SLC2A1 (Homo sapiens, UniProt P11166); assay: 2-Deoxyglucose uptake assay (Glucose Uptake-Glo); type: cell-based; conditions: 2-hour incubation, 0.35 nM to 6.89 μM, 1 mM 2DG for 20 min, FIG. 4
T1 construct: expressed in transfected cells; host or cells: HEK-293-ALL
T1 sequence (P11166 1-492): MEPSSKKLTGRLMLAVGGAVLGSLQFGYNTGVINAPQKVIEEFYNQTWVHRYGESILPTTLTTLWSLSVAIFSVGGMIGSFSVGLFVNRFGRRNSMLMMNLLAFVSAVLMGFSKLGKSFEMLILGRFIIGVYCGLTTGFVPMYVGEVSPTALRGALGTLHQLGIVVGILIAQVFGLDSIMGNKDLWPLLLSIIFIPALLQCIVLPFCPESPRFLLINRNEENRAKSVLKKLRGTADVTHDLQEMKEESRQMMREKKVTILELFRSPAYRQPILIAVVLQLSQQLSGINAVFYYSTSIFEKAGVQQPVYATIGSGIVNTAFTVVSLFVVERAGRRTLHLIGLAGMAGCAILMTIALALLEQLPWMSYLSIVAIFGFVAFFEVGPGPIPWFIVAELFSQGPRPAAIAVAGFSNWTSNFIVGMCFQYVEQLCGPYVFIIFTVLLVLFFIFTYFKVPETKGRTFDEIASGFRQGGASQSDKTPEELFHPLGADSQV
Protocol: To evaluate if the described anti-SLC2A1 antibodies inhibit glucose uptake, a commercial Glucose Uptake-Glo Assay kit (Promega) was utilized according to manufacturer's instructions. In short, HEK-293-ALL cells were transfected with human SLC2A1 expression plasmid and were incubated at 37° C. overnight in the presence of 5% CO2. Cells were washed with 0.5% BSA PBS twice and 7000 cells were plated per well into white clear bottom 96-well plates in 0.5% BSA PBS in the presence of 0.35 nM to 6.89 μM anti-SLC2A1 antibodies or glucose uptake inhibitor BAY-876 (CaymanChem). Cells were incubated for 2 hours at room temperature. Glucose uptake was initiated by the addition of 1 mM 2-deoxyglucose (2DG) and was allowed to proceed for 20 min at 37° C. in the presence of 5% CO2. After adding STOP and neutralization reagents included in the kit, luminescence was measured using GloMax Explorer microplate reader (Promega). Nonspecific luminescence was measured in lysates from cells without (2DG) being added. Data was normalized to nonspecific luminescence and to the average value of luminescence in the presence of no inhibitors.

MCF7 breast cancer cells = assay: Cell proliferation inhibition assay (Incucyte), MCF7; type: cell-based; conditions: for MCF7 cell growth (confluence), single agent: alone, Incucyte; for MCF7 cell growth in combination with phenformin: co-treatment with phenformin, FIGS. 7 and 9
Protocol: (§1) Incucyte S3 Live cell analysis instrument and Cell-by-Cell analysis software module (Sartorius) were used to evaluate the effect of anti-SLC2A1 antibodies on cancer cell proliferation label-free (FIGS. 5-11). MCF7, PC3 or PANC1 or MIAPACA2 cells were plated on flat bottom tissue culture 96-well plate in […] medium (Ximbio) supplemented with 2.5% FBS. Cells were incubated overnight and 0.02 nM to 13 μM anti-SLC2A1 antibodies, anti-HEL isotype control, PBS or BAY-876 were added to the cells alone or in combination with metformin (CaymanChem), phenformin (Sigma Aldrich) or IACS-010759 (CaymanChem). Cell confluence or object count was measured for 24 to 96 hours with Incucyte S3 and normalized to timepoint 0 h or 4h. anti-SLC2A1 antibodies inhibit cancer cell proliferation alone and especially in combination with complex-I inhibitors metformin, phenformin and IACS-010759. Exemplary antibodies 1G2 #9, 2A2 #12, 2E5 #22, 5G5 #30, 6F12 #33, 7C3 #39 and R14 #54 were used in proliferation assays.

[2] = tested on: PC3 prostate cancer cell line; assay: Cell proliferation inhibition assay (Incucyte), PC3; type: cell-based; conditions: alone, FIG. 11
Protocol: as §1

[3] = tested on: MIAPACA2 pancreatic cancer cell line; assay: Cell proliferation inhibition assay (Incucyte), MIAPACA2; type: cell-based; conditions: alone, FIG. 11
Protocol: as §1

SLC2A1 pseudotyped VLPs [4] = target: T2, SLC2A1 pseudotyped VLPs (Homo sapiens, UniProt P11166); assay: ELISA-based SLC2A1 VLP binding assay; conditions: 5 μg/mL VLP coating, FIG. 1
T2 sequence (P11166 1-492): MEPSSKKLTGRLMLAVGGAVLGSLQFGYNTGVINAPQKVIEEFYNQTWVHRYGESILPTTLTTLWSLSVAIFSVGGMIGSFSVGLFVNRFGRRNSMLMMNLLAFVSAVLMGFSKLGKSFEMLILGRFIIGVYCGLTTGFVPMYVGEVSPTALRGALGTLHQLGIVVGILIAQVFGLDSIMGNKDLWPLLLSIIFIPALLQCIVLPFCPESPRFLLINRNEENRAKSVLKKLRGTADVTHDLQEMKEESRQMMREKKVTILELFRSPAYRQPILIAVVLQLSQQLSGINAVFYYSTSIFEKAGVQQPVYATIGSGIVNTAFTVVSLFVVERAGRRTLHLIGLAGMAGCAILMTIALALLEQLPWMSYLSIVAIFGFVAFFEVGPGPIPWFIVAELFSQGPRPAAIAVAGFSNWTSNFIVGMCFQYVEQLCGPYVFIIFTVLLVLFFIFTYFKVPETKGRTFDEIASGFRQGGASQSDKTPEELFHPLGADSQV
Protocol: An ELISA-based VLP binding assay was carried out to compare the EC50 values of antibody clones (FIG. 1). Similarly, ELISA based VLP binding assay was performed to compare the binding of the antibodies to different glucose transporters (FIG. 3). MaxiSorp™ high-capacity binding ELISA plate (Thermo Fisher Scientific, US) were coated with 5 μg/mL SLC2A1, SLC2A2, SLC2A3, SLC2A4 pseudotyped VLPs or MOCK VLPs in PBS overnight. The plate was washed and blocked for 1 h with 0.05% Tween 20, 2% BSA in PBS. Serial dilutions of antibodies were incubated on a washed plate for 1 hour, followed by a 1-hour incubation with goat anti-human IgG horse radish peroxidase (HRP) conjugated (Invitrogen) antibody. TMB (3,3′,5,5′-Tetramethylbenzidine) Solution VII (Biopanda Diagnostics) was used as a substrate for HRP and 0.5 M H2SO4 was used as stop solution. After every step, the wells were washed with 0.05% Tween 20, 0.1% Proclin 300 PBS solution. Absorption at 450 nm was measured with Thermo Scientific™ Multiskan™ FC Microplate Photometer. Exemplary wise used antibodies 1G2 #9, 2A2 #12, 2E5 #22, 5G5 #30, 6F12 #33, 7C3 #39 all bound SLC2A1 VLPs with low nanomolar EC50 values (FIG. 1).

SLC2A1 pseudotyped VLPs [5] = target: T3, SLC2A1 pseudotyped VLPs (UniProt P11166 1-492); assay: ELISA
T3 chain: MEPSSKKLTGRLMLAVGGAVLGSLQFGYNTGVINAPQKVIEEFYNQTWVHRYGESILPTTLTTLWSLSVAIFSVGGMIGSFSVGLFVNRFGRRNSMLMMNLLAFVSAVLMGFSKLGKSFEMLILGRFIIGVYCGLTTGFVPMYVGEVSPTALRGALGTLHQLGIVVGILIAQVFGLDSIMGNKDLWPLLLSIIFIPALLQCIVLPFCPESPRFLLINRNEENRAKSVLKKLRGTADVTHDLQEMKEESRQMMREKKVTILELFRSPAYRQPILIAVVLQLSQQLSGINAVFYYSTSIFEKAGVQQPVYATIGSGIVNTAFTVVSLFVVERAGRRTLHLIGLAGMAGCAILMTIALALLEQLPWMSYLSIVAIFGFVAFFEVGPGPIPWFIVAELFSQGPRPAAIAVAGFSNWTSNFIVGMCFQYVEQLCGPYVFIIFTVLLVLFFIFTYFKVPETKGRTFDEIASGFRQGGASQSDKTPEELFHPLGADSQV

Molecule: Cc1c(NC(=O)c2cc(C(N)=O)nc3cc(F)ccc23)c(C(F)(F)F)nn1Cc1ccc(C#N)cc1 [BAY-876, reference compound]
- glucose (2-deoxyglucose) uptake [1]: strong concentration dependent decrease

Molecule: Cc1nc(-c2nc(-c3ccc(OC(F)(F)F)cc3)no2)nn1Cc1cccc(N2CCC(S(C)(=O)=O)CC2)c1 [IACS-010759, reference compound]
- MCF7 cell growth (confluence), single agent (MCF7 breast cancer cells): did not influence cell growth
- PC3 cell growth, single agent [2]: inhibited
- MIAPACA2 cell growth, single agent [3]: inhibited

Molecule: CN(C)C(=N)N=C(N)N [Metformin, metformin, reference compound]
- MCF7 cell growth (confluence), single agent (MCF7 breast cancer cells): did not influence cell growth

Molecule: [H]/N=C(/N)N/C(=N/[H])NCCc1ccccc1 [phenformin, reference compound]
- MCF7 cell growth (confluence), single agent (MCF7 breast cancer cells): did not influence cell growth; also recorded: No growth inhibition

B1: 5G5 #30 (antibody, V domains shown)
VH: AVTLDESGGGLQTPGGALSLVCKASGFTFSSHAIFWVRQAPDKGLEFVAAISSSSGSWTAYATVVKGRATISRDNGQSTVRLQLNNLRAEDTGTYYCAKAAGSACCYAGSIDAWGHGTEVIVSS
VL: ALTQPSSVSANPGETVKITCSGGSGSSYYGWYQQKSPGSAPVTVIYYDDKRPSDIPSRFSGSKSGSTATLTITGVQVEDEAVYYCGTGDGSIAIFGAGTTLTVL
- EC50 of binding to SLC2A1 VLPs (SLC2A1 pseudotyped VLPs [4]): low nanomolar
- MCF7 cell growth in combination with IACS-010759 (MCF7 breast cancer cells; co-treatment with IACS-010759, FIG. 8): drastically inhibited
- MCF7 cell growth in combination with metformin (MCF7 breast cancer cells; co-treatment with metformin, FIG. 6): drastically inhibited
- MCF7 cell growth in combination with phenformin (MCF7 breast cancer cells): completely inhibit; also recorded: drastically inhibited; also recorded: most potent growth inhibitors
- EC50 (SLC2A1 pseudotyped VLPs [5]): 1.2 nM

B2: 1G2 #9 (antibody, V domains shown)
VH: AVTLDESGGGLQTPGGALSLVCKASGFTFSTKGMGWVRQTPGKGLEWVAGISSMRRYTYYAPAVKGRATISRDNGQSTVRLQLSSLRAEDSGTYYCARDATYCSWTTSTCGWSGGTIDAWGHGTEVIVSS
VL: ALTQPSSVSANPGETVKITCSGSSGSYGWYQQKSPGSAPVTVIYWDDERPSGIPSRFSGSASGSTATLTITGVQAEDEAVYFCGSIDSSVGYVGIFGAGTTLTVL
- EC50 of binding to SLC2A1 VLPs (SLC2A1 pseudotyped VLPs [4]): low nanomolar
- MCF7 cell growth in combination with phenformin (MCF7 breast cancer cells): No growth inhibition
- EC50 (SLC2A1 pseudotyped VLPs [5]): 4.1 nM

B3: 7C3 #39 (antibody, V domains shown)
VH: AVTLDESGGGLQTPGGALSLVCKASGFTFSTKGMGWVRQTPGKGLEWVAGISSMRRYTYYAPAVKGRATISRDNGQSTVRLQLSSLRAEDSGTYYCARDATYCSWTTSTCGWSGGTIDAWGHGTEVIVSS
VL: ALTQPSSVSANLGGTVKITCSGGGSSSYYGWYQQKSPGSAPVTVIYGNDRRPSDIPSRFSGSASGSTATLTITGVQAEDEAVYFCGSADSSDSGSGIFGAGTTLTVL
- EC50 of binding to SLC2A1 VLPs (SLC2A1 pseudotyped VLPs [4]): low nanomolar
- MCF7 cell growth in combination with phenformin (MCF7 breast cancer cells): completely inhibit; also recorded: most potent growth inhibitors
- EC50 (SLC2A1 pseudotyped VLPs [5]): 1.4 nM

B4: 2A2 #12 (antibody, V domains shown)
VH: AVTLDESGGGLQTPGGALSLVCKGSGFTFSTKGMMWVRQAPGKGLEWVAGISSMSRYTYYAPAVKGRATISRDNGQSAVRLQLSSLRAEDTGTYYCARDATYCSWTASTCGWSGGTIDAWGHGTEVIVSS
VL: ALTQPSSVSANPGETVKITCSGGYSYYGTYYYSWYQQKSPGSAPVTLIYRNDKRPSDIPSRFSGSGSGSTSTLTITGVQAEDEAVYFCGSYDSSDSGIFGAGTTLTVL
- EC50 of binding to SLC2A1 VLPs (SLC2A1 pseudotyped VLPs [4]): low nanomolar
- MCF7 cell growth in combination with phenformin (MCF7 breast cancer cells): No growth inhibition
- EC50 (SLC2A1 pseudotyped VLPs [5]): 2.9 nM
